Assay results as given in article PMC4513857, “PRC2 regulates RNA polymerase III transcribed non-translated RNA gene transcription through EZH2 and SUZ12 interaction with TFIIIC complex” (Nucleic Acids Research, 2015).

Biological target: T1, GST-EZH2 fragment A, N-terminal region (Domain I + Domain II), aa 1-522 (UniProt Q15910 1-522)
T1 construct: Cloned in pGEX-4T-1; also called fragment A of EZH2; source: E. coli BL21, purified (Glutathione Sepharose 4B)
T1 sequence (looked up): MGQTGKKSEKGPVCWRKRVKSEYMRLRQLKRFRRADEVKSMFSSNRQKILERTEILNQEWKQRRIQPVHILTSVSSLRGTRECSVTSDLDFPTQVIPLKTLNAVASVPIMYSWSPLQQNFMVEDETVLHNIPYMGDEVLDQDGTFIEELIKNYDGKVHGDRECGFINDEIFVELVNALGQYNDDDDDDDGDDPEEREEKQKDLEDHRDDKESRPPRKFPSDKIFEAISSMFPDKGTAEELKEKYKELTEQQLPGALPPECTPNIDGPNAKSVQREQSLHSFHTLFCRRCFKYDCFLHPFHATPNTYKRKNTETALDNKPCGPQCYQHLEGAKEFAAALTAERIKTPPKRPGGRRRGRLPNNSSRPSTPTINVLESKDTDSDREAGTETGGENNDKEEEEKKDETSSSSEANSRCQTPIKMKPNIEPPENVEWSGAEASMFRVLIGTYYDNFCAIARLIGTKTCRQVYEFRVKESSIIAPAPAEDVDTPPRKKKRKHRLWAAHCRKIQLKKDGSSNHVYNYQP
Test: pull-down; in vitro pull-down with purified proteins: GST-EZH2 (aa 1-522) and MBP-TFIIIC102 fragment C (aa 524-886)
Conditions: both partners purified

binding result: binds
B1: MBP-TFIIIC102 fragment C (aa 524-886) (domain or fragment, UniProt Q9Y5Q9 524-886, looked up)
chain: QDANAAQQELKLLLHRSTLLFSQGKMYGYVDTLLTMLAMLLKVAMNRAQVCLISSSKSGERHLYLIKVSRDKISDSNDQESANCDAKAIFAVLTSVLTKDDWWNLLLKAIYSLCDLSRFQEAELLVDSSLEYYSFYDDRQKRKELEYFGLSAAILDKNFRKAYNYIRIMVMENVNKPQLWNIFNQVTMHSQDVRHHRFCLRLMLKNPENHALCVLNGHNAFVSGSFKHALGQYVQAFRTHPDEPLYSFCIGLTFIHMASQKYVLRRHALIVQGFSFLNRYLSLRGPCQESFYNLGRGLHQLGLIHLAIHYYQKALELPPLVVEGIELDQLDLRRDIAYNLSLIYQSSGNTGMAQTLLYTYCSI
notes: source: purified
